Results: US20170160285A1 (VIB VZW, published 2017)

B1: NANOBODY CA8405 (VHH)
VHH: QVQLVESGGGLVQDGGSLRLSCTASGRTFSNNAMGWFRQEPGREREFVAAIRWNGIANYADSVKGRFTISGDNAKNTVYLQMNSLKPDDTAVYYCAAAIRDGHNYYASDMRRYDYWGQGTQVTVSS
notes: Family 21; also called CA8433 (pMESy4, E. coli)
B2: NANOBODY CA8316 (VHH)
VHH: QLQLVESGGGLVQAGGSLRLSCAASGDTFSRYVMGWFRQAPGKERTFVVGISGGGGITRYADSVKGRFTISRDNAENTLYLEMNTLNPEDTAVYYCAATPADSAFMRNLRVYDYWGQGTQVTVSS
notes: Family 7; The same nanobody subcloned in pMESy4 and purified from E. coli is CA8332
B3: NANOBODY CA8322 (VHH)
VHH: QVQLVESEGGLVQPGGSLRLSCAASGFTFKYYYMNWVRQAPGKGLEWVSRINQLGGTSYGDSVKGRFTISRDNAKNTLYLQMNSLVPEDTAVYYCARCPAGAACKVEYDYRGQGTQVTVSS
notes: Family 16; also called CA8338 (pMESy4, E. coli)
B4: NANOBODY CA8418 (VHH)
VHH: QVQLVESGGGLVQAGGSLRLSCAASGRTFSNYAMGWFRQAPGKEREFVAALTWSGGNTVYRDSVKGRFIITRDNAKNAVYLQMNSLKPEDTAVYYCASDRRPYRYNIGTAEGEYNYWGQGTQVTVSS
notes: Family 23
B5: NANOBODY CA8318 (VHH)
VHH: QVQLVESGGGRVQAGDSLRLSCAASGRTFSPYAMGWFRQAPGKEREFVATINWSGDYTYYTDSVKGRFTTSRDNAKNTLYLEMNSLNAEDTAVYYCVARVGSPSSSDRAYQYWGQGTQVTVSS
notes: Family 8; also called CA8334 (pMESy4, E. coli)
B6: NANOBODY CA8421 (VHH)
VHH: QVQLVESGGGLVQAGGSLRLSCAASGRTFSNYAMGWFRQAPGKEREFVAHITWTGGITYYSDSVKGRFIISRDNAKNTVNLQMNSLKAEDTAVYYCAADRVPYRFGVPSINEYDYWGQGTQVTVSS
notes: Family 26
B7: NANOBODY CA8403 (VHH)
VHH: QVQLVESGGGLVQAGGSLRLSCAASTRTFSNYVMGWFRQAPGKEREFVSAITSSGRGTSYADSVKGRFTISRDNAKNTVFLQMNSLKPEDTAVYYCAATAADYVLRSRPSVYSYWGQGTQVTVSS
notes: Family 20; also called CA8432 (pMESy4, E. coli)
B8: NANOBODY CA8402 (VHH)
VHH: QVQLVESGGGLVQAGGSLRLSCAASGRTFSNYAMGWFRQAPGKEREFVAAISWSGGKTLYAESVKGRFTISRDNAKNTVYLQMNSLKPEDTAVYYCAATPADLTVVAGPPRIEMWYWGQGTQVTVSS
notes: Family 19; also called CA8431 (pMESy4, E. coli)
B9: NANOBODY CA8315 (VHH)
VHH: QVQLVESGGGLVQAGGSLRLSCAASGRTFSNYAMGWFRQTPGKEREFVAAITWSGGATYYADSVKGRFIISRDNTKNTVYLQMNSLKPEDTAVYYCAADRKPYSYYPSDFGSWGQGTQVTVSS
notes: Family 5; also called CA8331 (pMESy4, E. coli)
B10: NANOBODY CA8406 (VHH)
VHH: QVQLVESGGGLVQPGGSLRLSCAASTNIFNLRSMGWYRQAPGKERELVATITTYNTNYADSVKGRFTISRDNAKKTMYLQMNSLRPEDTAVYYCNLQNRYDAMDYWGKGTQVTVSS
notes: Family 11
B11: NANOBODY CA8419 (VHH)
VHH: QVQLVESGGGLVQPGGSLRLSCAASGFTFSRFVMNWARQAPGKGLEWVSTINSDGDVTSYADSVKGRFTISRDNAKNTLYLQMNSLKPEDTAVYYCGKGWFLNRRDESRGQGTQVTVSS
notes: Family 24
B12: NANOBODY CA8312 (VHH)
VHH: QVQLVESGGGLVQAGGSKRLSCAASGRPFSNSAMGWFRQAPGKEREFVAAISWSGGNTYYADSVKGRFTISRDNAKNAVYLRMNSLEPEDTAVYYCAGDRQPYVYDLPTAQYQYDYWGQGTQVTVSS
notes: Family 1; also called CA8328 (pMESy4, E. coli)
B13: NANOBODY CA8411 (VHH)
VHH: QVQLVESGGGLVQAGGSLRLSCAASARTFSRYGAGWFRQAPGKEREFVGAITWGGGRTKYADSVKGRFTISRDNSKNTVYLQMNSLKSEDTAVYYCASSSIEFGPLEDTYDYWGQGTQVTVSS
notes: Family 3
B14: NANOBODY CA8314 (VHH)
VHH: QVQLVESGGGLVQAGDSLRLSCTASERAFSRYAMGWFRQAPGKERELVAAVSWAGGTTYYGDSVKGRFTISRDNAKITVYLQMNSLKPEDTAVYYCAAEAREFSVGSYYATEYDYWGQGTQVTVSS
notes: Family 4; also called CA8330 (pMESy4, E. coli)
B15: NANOBODY CA8408 (VHH)
VHH: QVQLVESGGGLVQAGDSLRLSCAASGLIVSNYAMGWFRQAPGKEREFVAYINWNGGVTYYTNSVKGRFTISRDNAKNTVYLQMNSLKPEDTAVYYCARTSRASVTTRVADFGYWGQGTQVTVSS
notes: Family 6; also called CA8109 (pMESy4, E. coli)
B16: NANOBODY CA8424 (VHH)
VHH: QVQLVESGGDLVQAGGSLRLSCAASGGIFIINNMGWYRQTPGNQRELVAEITRAGNSNYADSVKGRFTISRDNAKNTVYLQMNRLKPEDTAVYYCNFNVRYYGEYWGQGTQVTVSS
notes: Family 29; also called CA8444 (pMESy4, E. coli)
B17: NANOBODY CA8319 (VHH)
VHH: QVQLVESGGGLVQAGGSLRLSCEASGRTSSSYVMGWFRRVSGKEREFVAAINPTGSSTYYADSVKGRFTISRDNSKNTVYVQMNGLKPEDTAVYYCAATRRDFYIIRNSRPQFDYWGQGTQVTVSS
notes: Family 10

Assays:
[1] = target: T1, Recombinant Gαi1 (heterotrimeric G protein alpha subunit i1) (rat, UniProt P10824 1-354); test: FACS on single yeast clone displaying the Nb; Gαi1-DYLIGHT-488
T1 construct: In the FACS screening it was labelled at random on amines with DYLIGHT-488 NHS ester; The sentence reads 'Recombinant rat RIC8A (uniprot:Q80ZG1) and Gαi1 (uniprot:P10824)'
T1 sequence (P10824 whole entry, one chain of several): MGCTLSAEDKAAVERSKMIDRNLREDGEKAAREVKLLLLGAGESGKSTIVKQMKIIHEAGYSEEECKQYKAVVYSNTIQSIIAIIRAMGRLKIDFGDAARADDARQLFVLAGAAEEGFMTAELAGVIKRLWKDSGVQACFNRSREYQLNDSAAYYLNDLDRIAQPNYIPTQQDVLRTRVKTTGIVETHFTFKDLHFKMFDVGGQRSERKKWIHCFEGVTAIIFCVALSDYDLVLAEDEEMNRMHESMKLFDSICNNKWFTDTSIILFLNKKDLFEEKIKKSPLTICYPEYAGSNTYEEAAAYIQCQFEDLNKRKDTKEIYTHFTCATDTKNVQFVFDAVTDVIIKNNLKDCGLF

[2] = target: T2, Recombinant rat RIC8A (resistance to inhibitors of cholinesterase 8A) (rat, UniProt Q80ZG1 1-491, limits assumed); test: FACS on single yeast clone displaying the Nb; RIC8A-DYLIGHT-405
T2 construct: In the FACS screening it was labelled at random on amines with DYLIGHT-405 NHS ester
T2 sequence (looked up): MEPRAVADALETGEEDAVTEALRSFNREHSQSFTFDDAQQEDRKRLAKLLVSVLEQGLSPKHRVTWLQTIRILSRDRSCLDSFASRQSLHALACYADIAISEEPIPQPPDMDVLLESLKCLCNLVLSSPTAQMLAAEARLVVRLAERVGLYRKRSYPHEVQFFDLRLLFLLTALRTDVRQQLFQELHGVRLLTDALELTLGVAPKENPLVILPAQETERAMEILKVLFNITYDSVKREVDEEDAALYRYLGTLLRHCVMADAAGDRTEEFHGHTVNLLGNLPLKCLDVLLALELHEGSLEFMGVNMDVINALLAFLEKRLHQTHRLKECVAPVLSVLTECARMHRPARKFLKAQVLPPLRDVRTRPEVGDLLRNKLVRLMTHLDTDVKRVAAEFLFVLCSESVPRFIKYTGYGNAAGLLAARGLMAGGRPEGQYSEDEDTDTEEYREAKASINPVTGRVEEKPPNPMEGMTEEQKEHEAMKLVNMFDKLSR

[3] = target: T1, Recombinant Gαi1 (heterotrimeric G …); test: FACS of yeast cells displaying the Nb, stained with 1 µM Gαi1(GDP)-DYLIGHT-488; black = clone (CA8316 per legend), grey = irrelevant Nb
[4] = target: T2, Recombinant rat RIC8A (resistance to …); test: FACS of yeast cells displaying the Nb, stained with 1 µM RIC8A-DYLIGHT-405; black = clone (CA8316 per legend), grey = irrelevant Nb
[5] = target: T1, Recombinant Gαi1 (heterotrimeric G …); test: FACS of yeast cells displaying the Nb, stained with 1 µM Gαi1(GDP)-DYLIGHT-488; black = clone (CA8322 per legend), grey = irrelevant Nb

| Binder | binding result [1] | binding result [2] | further results |
| --- | --- | --- | --- |
| B1 | no binding (tested: 1 µM) | no binding (tested: 1 µM) | – |
| B2 | – | – | binding result [3]: no binding (tested: 1 µM); binding result [4]: no binding (tested: 1 µM) |
| B3 | – | – | binding result [5]: no binding (tested: 1 µM) |
| B4 | no binding (tested: 1 µM) | – | – |
| B5 | no binding (tested: 1 µM) | no binding (tested: 1 µM) | – |
| B6 | no binding (tested: 1 µM) | – | – |
| B7 | no binding (tested: 1 µM) | no binding (tested: 1 µM) | – |
| B8 | no binding (tested: 1 µM) | no binding (tested: 1 µM) | – |
| B9 | no binding (tested: 1 µM) | no binding (tested: 1 µM) | – |
| B10 | no binding (tested: 1 µM) | – | – |
| B11 | no binding (tested: 1 µM) | – | – |
| B12 | no binding (tested: 1 µM) | no binding (tested: 1 µM) | – |
| B13 | no binding (tested: 1 µM) | – | – |
| B14 | no binding (tested: 1 µM) | no binding (tested: 1 µM) | – |
| B15 | no binding (tested: 1 µM) | – | – |
| B16 | no binding (tested: 1 µM) | – | – |
| B17 | no binding (tested: 1 µM) | no binding (tested: 1 µM) | – |
